Experiment in all cases: SEC
Test [1] has as its target SpyT-PAS2-mtDod (Mycobacterium tuberculosis).
Test [2] deals with SpyT-mtDod (Mycobacterium tuberculosis).
In test [3] the target is SpyT-mtDod-SnpT (Mycobacterium tuberculosis).
Test [4] has as its target mtDod-GSG-Lys (Mycobacterium tuberculosis).
For test [5], the target named is mtDod-PAS2-SpyT (Mycobacterium tuberculosis).
The target in test [6] is mtDod-PAS-Met (Mycobacterium tuberculosis).
Test [7] addresses mtDod-SpyT (Mycobacterium tuberculosis).
Test [8] has as its target mtDod-msfGFP-H8 (Mycobacterium tuberculosis | not stated).

Regarding SpyT-PAS2-mtDod, the stoichiometry N in test [1] worked out at 12.

SpyT-mtDod gave a stoichiometry N in test [2] of 12.

In the case of SpyT-mtDod-SnpT, in test [3], the stoichiometry N was found to be 12.

mtDod-GSG-Lys came in with a stoichiometry N in test [4] of 12.

In test [5], mtDod-PAS2-SpyT registered a stoichiometry N of 12.

For mtDod-PAS-Met, the stoichiometry N in test [6] was 12.

For the substance mtDod-SpyT, the stoichiometry N in test [7] was 12.

As to mtDod-msfGFP-H8, the stoichiometry N in test [8] was found to be 12.

These data come from publication PMC7414021, “Dodecin as carrier protein for immunizations and bioengineering applications” (Scientific Reports, 2020).
